Reference: the supplement of paper PMC9942255

These sequences were tested on Bacillus subtilis DB104 (SP-AmyQ fusion secretion) (assay: AmyQ secretion efficiency, weighted average sort bin (1 = best secretion, 10 = worst) (bin number (weighted average, 1-10)); higher = lower secretion efficiency).
In short: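 A B. subtilis DB104 library carrying amyE-integrated fusions of designed signal peptides to mature AmyQ was encapsulated at about 0.3 cells per ~65 nL alginate bead with fluorescein-starch and grown about 13 h at room temperature. Following nile red staining, occupied beads were flow-sorted as large particles into 10 equally populated bins by green/red fluorescence ratio, and the bin amplicons were Illumina-sequenced. The secretion score is the read-frequency-weighted average bin number normalised to beads per bin, leaving out low-abundance sequences.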

Row | Sequence | AmyQ secretion efficiency
1 | MKKAAAVLLSLGLVFGFSYGAGHVQEAKTK | 7.17
2 | MKNMSCKLVVSVTLFFSFLTIGPLQHAQNS | 5.15
3 | MGMKKKLSLGVASAALGLALVGGGTWGAFN | 7.37
4 | MKRTWNVCLTALLSVLLVAGSVPFHAEAKKK | 2.67
5 | MKRFLIGAGVAAVILSGWTIADHQTHSQEM | 5.66
6 | MKSKWMSGLLLVAVGFSFTQVMVHNGET | 8.98
7 | MPYLKRVLLLLVTGLFMSLFAVTATASAQTD | 1.91
8 | MRKYTFVIASILLSFLSVLSGGHHESKAFPV | 5.44
9 | MFNRLFRVCFLAALIMAFVFTLPNSVYAQKP | 2.33
10 | MLLGKILLSSALSLGMLVSAAPVLATSS | 6.9
11 | MKKKRRRVLMAFIICLSLILSVLAAPPSGAKAESV | 2
12 | MKNGGCKLVVSVTLFFSFLTIGPLAHAQNS | 3.26
13 | MKRSIFITCLLITLLTMGGMIASPASAAGT | 2.08
14 | MTIIIAIIAAVIVIAALITFNVRNASPG | 7.45
15 | MRSKKILWISLLFALTLIFTMAFSNMSAQAAGK | 2.64
16 | MKWYRRRQRCSICCAAVLLAGGAAQAEAV | 4.99
17 | MKRIRIPMTLALGAALTIAPLSFASAAKR | 4.18
18 | MNIKKFAKQATVLTFTTALLAGGATQAFAKET [wt_31] | 3.5
19 | MRPVFPLILSAVLFLSCFFGARQTEASESKR | 2.54
20 | MPIKKKVMMCTSGTTSFGSMSFPTLTNSGGFKE | 7.09
21 | MKKGIIRFLLVSFVLFFALSTGITGAQAAPA | 2.21

Row | Sequence | AmyQ secretion efficiency
22 | MKKTIMSTYGVAALSTTAFGAHASAKEI | 8.21
23 | MKQGKFSVFLILLLMLTLVVRRRKKRKAEAASS | 7.96
24 | MRPVFPLILSAVLFLSCFFGARQTEASHSKR | 2.35
25 | MKKRLKRKRVLVPALIMSGITLIEANKK | 6.77
26 | MKVLLSALLLLLFAFEPSHSGKKL | 6.88
27 | MKRTWNVCLTALLSVLLVAGSVTLVAAPFHAEAKKP | 2.5
28 | MKRLLVSLRVWMVFLMNWVTPDRKTAAPAVY | 6.03
29 | MKKRKRRNFKRFIAAFLVLALMISLVPADGLAKST | 2.45
30 | MKKIWIGMLAAAVLLLRKRKKKSLADAA | 6.58
31 | MKSKWMSGLLLVAVGFSFTQVMYHAGET | 7.02
32 | MKKQKKIAGVLTVAAAAMTAKMYATAKGN | 7.17
33 | MRKYTQIASILLSFLSVLSGGHHESKAFPV | 6.41
34 | MKKVMLATALFLGLTPAGANARKR | 6.61
35 | MRNLTKTSLLLAGLCTAAQMVFVTHASAASK | 1.6
36 | MKKKLAAGLTASAIVGTTLVVTPAEAARK | 3.53
37 | MRMLWRSLALCGLALTLAPCAQSAEP | 2.34
38 | MKKRLIAPMLLSAASLAFFAMSGSAQSAAY | 5.28
39 | MAAQTDYKKQVVGILLSLAFVLFVFSCSERHE | 4.02
40 | MKLRKVRRRKKRSLGLLVSASPAFATSP | 8.72
41 | MLTKRLLTIYIMLLGLIDDDPGAAQAEEK | 9.93
42 | MKKRLIAPMLLSAASLAFFAMAQAAAY | 6.11

Row | Sequence | AmyQ secretion efficiency
43 | MRGKSAKRLSLIMLIAGFLISFSFQM | 7.38
44 | MKWMCSICCAAVLLAGGAHQAEAV | 2.89
45 | MRKKTKNRLISSVLSTVVISSLLFPGAAGCSSK | 5.98
46 | MRSYIKVLTMCFLGLILFVPTMLADNS | 3.1
47 | MRNLTKTSLLLAGLCTAAQMVFVTHHSAEES | 4.26
48 | MKKGIIRFLLVSFVLFFALSTGITGVQVAPA | 6.17
49 | MKRSISRRRKCLLITLLTMGGMIASPASAAGT | 2.97
50 | MFNRLFRVCKKKRKRMAFTLPNSVYAQKP | 7.15
51 | MKKAAAVLLSLGLVFGFSYGAGHVAEAAKK | 5.64
52 | MKLAKRVSALTPSTTLAITAKSKEL | 7.27
53 | MMIKQCVICLSLLVFGTTTAHAEET | 2.61
54 | MMKKGLLAGALTATVLFGTCAVDVPKAEAASQ | 1.63
55 | MLCVMMLLFSAIASFPVSYQAKDQ | 6.1
56 | MKKGIIRFLLVSFVLFFALSTGITGVQFAPA | 7.18
57 | MNKPTKLFSTLALAAGMTDEEEEEAGTIHAQQP | 7.16
58 | MKLAKRVSALTPSTTLAITAKEKEL | 7.18
59 | MIVIILLFISIIVFLKRKKKKIQPQPS | 8.16
60 | MKKSQYFIVFICFFVLFSVHPIAEAAADS | 3.62
61 | MGLGKKLSVAVAASFMSLSISLKRRRKRVQAAEG | 7.64
62 | MKSKGSIMACLILFSFTITTVTFINTETISAFSN | 5.25
63 | MTKKAWFLPLVCVLLISGWLAPAASASKQTT | 2.02
